In patent publication US20250188176A1:

B1: AHF21170 (Fab, V domains shown, not shown: small tags and cut ends)
VH: EVQLVESGGDLVKPGGSLRLSCVASGFTFRDYAMTWVRQAPGKGLQWVSLINGSGGKTYYADAVKGRFTISRDNAKNTLYLQMNSLRAEDTAVYYCAVDRLTKTIRPQYYGLWVWGQGTLVTVSS
VL: DIVMTQTPLSLSVSPGETASISCRSSQSLTYSIGYNYLDWYLQKPGQSPQGLIYLGSKRASGVPDRFSGSGSGTDFTLRISRVEANDTGVYYCMQGLQSPLTFGQGTKLEIKR
B2: AHF21171 (Fab, V domains shown, not shown: small tags and cut ends)
VH: EVQLVESGGDLVKPGGSLRLSCVASGFTFRDYAMTWVRQAPGKGLQWVSLINGSGGKTYYADAVKGRFTISRDNAKNTLYLQMNSLRAEDTAVYYCAVDRLTKTIRPQYYGLWHWGQGTLVTVSS
VL: DIVMTQTPLSLSVSPGETASISCRSSQSLLYSIGYNYLDWYLQKPGQSPQGLIYLGHKRASGVPDRFSGSGSGTDFTLRISRVEANDTGVYYCMQGLQSPLSFGQGTKLEIKR
B3: AHF21172 (Fab, V domains shown, not shown: small tags and cut ends)
VH: EVQLVESGGDLVKPGGSLRLSCVASGFTFRDYAMTWVRQAPGKGLQWVSLINGSGGKTYYADAVKGRFTISRDNAKNTLYLQMNSLRAEDTAVYYCAVDRLTKTIRPQYYGLWVWGQGTLVTVSS
VL: DIVMTQTPLSLSVSPGETASISCRSSQSLLYSIGYNYLDWYLQKPGQSPQGLIYLGHKRASGVPDRFSGSGSGTDFTLRISRVEANDTGVYYCMQGLQSPLTFGQGTKLEIKR
B4: AHF21173 (Fab, V domains shown, not shown: small tags and cut ends)
VH: EVQLVESGGDLVKPGGSLRLSCVASGFTFRDYAMTWVRQAPGKGLQWVSLINGSGGKTYYADAVKGRFTISRDNAKNTLYLQMNSLRAEDTAVYYCAVDRKTKTIRPQYYGLWVWGQGTLVTVSS
VL: DIVMTQTPLSLSVSPGETASISCRSSQSLTYSIGYNYLDWYLQKPGQSPQGLIYLGHKRASGVPDRFSGSGSGTDFTLRISRVEANDTGVYYCMQGLQSPLSFGQGTKLEIKR
B5: AHF21174 (Fab, V domains shown, not shown: small tags and cut ends)
VH: EVQLVESGGDLVKPGGSLRLSCVASGFTFRDYAMTWVRQAPGKGLQWVSLINGSGGKTYYADAVKGRFTISRDNAKNTLYLQMNSLRAEDTAVYYCAVDRLTKTIRPQYYGLWVWGQGTLVTVSS
VL: DIVMTQTPLSLSVSPGETASISCRSSQSLTYSIGYNYLDWYLQKPGQSPQGLIYLGHKRASGVPDRFSGSGSGTDFTLRISRVEANDTGVYYCMQGLQSPLSFGQGTKLEIKR
B6: AHF21176 (Fab, V domains shown, not shown: small tags and cut ends)
VH: EVQLVESGGDLVKPGGSLRLSCVASGFTFRDYAMTWVRQAPGKGLQWVSLINGSGGKTYYADAVKGRFTISRDNAKNTLYLQMNSLRAEDTAVYYCAVDRKTKTIRPQYYGLWHWGQGTLVTVSS
VL: DIVMTQTPLSLSVSPGETASISCRSSQSLTYSIGYNYLDWYLQKPGQSPQGLIYLGHKRASGVPDRFSGSGSGTDFTLRISRVEANDTGVYYCMQGLQSPLGFGQGTKLEIKR
B7: AHF21177 (Fab, V domains shown, not shown: small tags and cut ends)
VH: EVQLVESGGDLVKPGGSLRLSCVASGFTFRDYAMTWVRQAPGKGLQWVSLINGSGGKTYYADAVKGRFTISRDNAKNTLYLQMNSLRAEDTAVYYCAVDRLTKTIRPQYYGLWVWGQGTLVTVSS
VL: DIVMTQTPLSLSVSPGETASISCRSSQSLTYSIGYNYLDWYLQKPGQSPQGLIYLGSKRASGVPDRFSGSGSGTDFTLRISRVEANDTGVYYCMQGLQSPLGFGQGTKLEIKR
B8: AHF21178 (Fab, V domains shown, not shown: small tags and cut ends)
VH: EVQLVESGGDLVKPGGSLRLSCVASGFTFRDYAMTWVRQAPGKGLQWVSLINGSGGKTYYADAVKGRFTISRDNAKNTLYLQMNSLRAEDTAVYYCAVDRLTKTIRPQYYGLWVWGQGTLVTVSS
VL: DIVMTQTPLSLSVSPGETASISCRSSQSLTYSIGYNYLDWYLQKPGQSPQGLIYLGSKRASGVPDRFSGSGSGTDFTLRISRVEANDTGVYYCMQGLQSPLSFGQGTKLEIKR
B9: AHF21180 (Fab, V domains shown, not shown: small tags and cut ends)
VH: EVQLVESGGDLVKPGGSLRLSCVASGFTFRDYAMTWVRQAPGKGLQWVSLINGSGGKTYYADAVKGRFTISRDNAKNTLYLQMNSLRAEDTAVYYCAVDRKTKTIRPQYYGLWHWGQGTLVTVSS
VL: DIVMTQTPLSLSVSPGETASISCRSSQSLTYSIGYNYLDWYLQKPGQSPQGLIYLGSKRASGVPDRFSGSGSGTDFTLRISRVEANDTGVYYCMQPLQSPLTFGQGTKLEIKR
B10: AHF21182 (Fab, V domains shown, not shown: small tags and cut ends)
VH: EVQLVESGGDLVKPGGSLRLSCVASGFTFRDYAMTWVRQAPGKGLQWVSLINGSGGKTYYADAVKGRFTISRDNAKNTLYLQMNSLRAEDTAVYYCAVDRLTKTIRPQYYGLWHWGQGTLVTVSS
VL: DIVMTQTPLSLSVSPGETASISCRSSQSLTYSIGYNYLDWYLQKPGQSPQGLIYLGHKRASGVPDRFSGSGSGTDFTLRISRVEANDTGVYYCMQGLQSPLLFGQGTKLEIKR
B11: AHF21184 (Fab, V domains shown, not shown: small tags and cut ends)
VH: EVQLVESGGDLVKPGGSLRLSCVASGFTFRDYAMTWVRQAPGKGLQWVSLISGSGGKTYYADAVKGRFTISRDNAKNTLYLQMNSLRAEDTAVYYCAVDRLTKTIRPQYYGLWHWGQGTLVTVSS
VL: DIVMTQTPLSLSVSPGETASISCRSSQSLLYSIGYNYLDWYLQKPGQSPQGLIYLGSKRASGVPDRFSGSGSGTDFTLRISRVEANDTGVYYCMQGLQSPLSFGQGTKLEIKR
B12: AHF21186 (Fab, V domains shown, not shown: small tags and cut ends)
VH: EVQLVESGGDLVKPGGSLRLSCVASGFTFRDYAMTWVRQAPGKGLQWVSLINGSGGKTYYADAVKGRFTISRDNAKNTLYLQMNSLRAEDTAVYYCAVDRLTKTIRPQYYGLWHWGQGTLVTVSS
VL: DIVMTQTPLSLSVSPGETASISCRSSQSLLYSIGYNYLDWYLQKPGQSPQGLIYLGHKRASGVPDRFSGSGSGTDFTLRISRVEANDTGVYYCMQGLQSPLTFGQGTKLEIKR
B13: AHF21187 (Fab, V domains shown, not shown: small tags and cut ends)
VH: EVQLVESGGDLVKPGGSLRLSCVASGFTFRDYAMTWVRQAPGKGLQWVSLINGSGGKTYYADAVKGRFTISRDNAKNTLYLQMNSLRAEDTAVYYCAVDRKTKTIRPQYYGLWVWGQGTLVTVSS
VL: DIVMTQTPLSLSVSPGETASISCRSSQSLTYSIGYNYLDWYLQKPGQSPQGLIYLGHKRASGVPDRFSGSGSGTDFTLRISRVEANDTGVYYCMQGLQSPLGFGQGTKLEIKR
B14: AHF21188 (Fab, V domains shown, not shown: small tags and cut ends)
VH: EVQLVESGGDLVKPGGSLRLSCVASGFTFRDYAMTWVRQAPGKGLQWVSLISGSGGKTYYADAVKGRFTISRDNAKNTLYLQMNSLRAEDTAVYYCAVDRLTKTIRPQYYGLWHWGQGTLVTVSS
VL: DIVMTQTPLSLSVSPGETASISCRSSQSLTYSIGYNYLDWYLQKPGQSPQGLIYLGSKRASGVPDRFSGSGSGTDFTLRISRVEANDTGVYYCMQGLQSPLGFGQGTKLEIKR
B15: AHF21190 (Fab, V domains shown, not shown: small tags and cut ends)
VH: EVQLVESGGDLVKPGGSLRLSCVASGFTFRDYAMTWVRQAPGKGLQWVSLINGSGGKTYYADAVKGRFTISRDNAKNTLYLQMNSLRAEDTAVYYCAVDRLTKTIRPQYYGLWVWGQGTLVTVSS
VL: DIVMTQTPLSLSVSPGETASISCRSSQSLLYSIGYNYLDWYLQKPGQSPQGLIYLGHKRASGVPDRFSGSGSGTDFTLRISRVEANDTGVYYCMQGLQSPLSFGQGTKLEIKR
B16: FJ2246MP05G01 (Fab, V domains shown)
VH: EVQLVESGGDLVKPGGSLRLSCVASGFPFRDFAMTWVRQAPGKGLQWVSLISGSGGKTYYADAVKGRFTISRDNAKNTLYLQMNSLRAEDTAVYYCAVDRLTKTIRPQYYGLWVWGQGTLVTVSS
VL: DIVMTQTPLSLSVSPGETASISCRSSQSLLYSIGYNYLDWYLQKPGQSPQGLIYLGSKRASGVPDRFSGSGSGTDFTLRISRVEANDTGVYYCMQGLQSPLTFGQGTKLEIKR
B17: FJ2246MP05A04 (Fab, V domains shown)
VH: EVQLVESGGDLVKPGGSLRLSCVASGLPFRDYAMTWVRQAPGKGLQWVSLISGSGGKTYYADAVKGRFTISRDNAKNTLYLQMNSLRAEDTAVYYCAVDRLTKTIRPQYYGLWVWGQGTLVTVSS
VL: DIVMTQTPLSLSVSPGETASISCRSSQSLLYSIGYNYLDWYLQKPGQSPQGLIYLGSKRASGVPDRFSGSGSGTDFTLRISRVEANDTGVYYCMQGLQSPLTFGQGTKLEIKR
B18: FJ2246MP06F11 (Fab, V domains shown)
VH: EVQLVESGGDLVKPGGSLRLSCVASGFTFRDYAMTWVRQAPGKGLQWVSLINGDGSKTYYADAVKGRFTISRDNAKNTLYLQMNSLRAEDTAVYYCAVDRLTKTIRPQYYGLWVWGQGTLVTVSS
VL: DIVMTQTPLSLSVSPGETASISCRSSQSLLYSIGYNYLDWYLQKPGQSPQGLIYLGSKRASGVPDRFSGSGSGTDFTLRISRVEANDTGVYYCMQGLQSPLTFGQGTKLEIKR
B19: FJ2246MP06G06 (Parental Fab of TB640_005) (Fab, V domains shown)
VH: EVQLVESGGDLVKPGGSLRLSCVASGFTFRDYAMTWVRQAPGKGLQWVSLISGSGGKTYYADAVKGRFTISRDNAKNTLYLQMNSLRAEDTAVYYCAVDRLTKTIRPQYYGLWVWGQGTLVTVSS
VL: DIVMTQTPLSLSVSPGETASISCRSSQSLLYSIGYNYLDWYLQKPGQSPQGLIYLGSKRASGVPDRFSGSGSGTDFTLRISRVEANDTGVYYCMQGLQSPLTFGQGTKLEIKR

Each binder was assayed against canine IL-4RA (construct not given) (canine) (assay: SPR, combinatorial Fab-SASA clone).
Binder B1 has a Kd of 0.94 nM, a koff of 0.000138 s⁻¹ and a kon of 147000 M⁻¹ s⁻¹. Binder B2 has a Kd of 0.47 nM, a koff of 0.000134 s⁻¹ and a kon of 285000 M⁻¹ s⁻¹. B3 was tested, and the Kd was 0.74 nM, the koff was 0.000168 s⁻¹ and the kon was 226000 M⁻¹ s⁻¹. For B4, the Kd was 0.606 nM, the koff was 9.69e-05 s⁻¹ and the kon was 160000 M⁻¹ s⁻¹. B5 showed a Kd of 0.521 nM, a koff of 9.58e-05 s⁻¹ and a kon of 184000 M⁻¹ s⁻¹. B6 showed a Kd of 0.309 nM, a koff of 9.11e-05 s⁻¹ and a kon of 295000 M⁻¹ s⁻¹. B7 was tested, and the Kd was 0.561 nM, the koff was 9.52e-05 s⁻¹ and the kon was 170000 M⁻¹ s⁻¹. B8 showed a Kd of 0.466 nM, a koff of 8.27e-05 s⁻¹ and a kon of 178000 M⁻¹ s⁻¹. B9 gave a Kd of 0.259 nM, a koff of 5.68e-05 s⁻¹ and a kon of 219000 M⁻¹ s⁻¹. For B10, the Kd was 0.442 nM, the koff was 0.000126 s⁻¹ and the kon was 286000 M⁻¹ s⁻¹. Work on B11 yielded a Kd of 1.89 nM, a koff of 0.000543 s⁻¹ and a kon of 287000 M⁻¹ s⁻¹. B12 showed a Kd of 0.485 nM, a koff of 0.000148 s⁻¹ and a kon of 306000 M⁻¹ s⁻¹. B13 showed a Kd of 0.769 nM, a koff of 0.000132 s⁻¹ and a kon of 172000 M⁻¹ s⁻¹. With B14 the Kd was 0.857 nM, the koff was 0.000278 s⁻¹ and the kon was 325000 M⁻¹ s⁻¹. In the case of B15, the Kd is reported as 0.68 nM, the koff is reported as 0.000152 s⁻¹ and the kon is reported as 223000 M⁻¹ s⁻¹.

These binders were tested against canine IL-4RA (construct not given) (canine) (assay: SPR, IL-4RA immobilised, periplasmic Fab).
B16 gave an Improvement over parental of 2 fold, an RU max of 344 RU and a koff of 0.000142 s⁻¹. B17 gave an Improvement over parental of 2 fold, an RU max of 329 RU and a koff of 0.000142 s⁻¹. Work on B18 yielded an Improvement over parental of 2 fold, an RU max of 196 RU and a koff of 0.000143 s⁻¹. B19 showed an Improvement over parental of 1 fold, an RU max of 105 RU and a koff of 0.00028 s⁻¹.
